Measurements as given in patent publication US20250270737A1, “Antibodies That Bind GLP1R” (Twist Bioscience Corporation, priority 2019, published 2025).
Read-outs that look alike come from different tables or passages of the source.

What was measured:
[1] = biological target: T1, GLP1R (Homo sapiens, UniProt P43220); experiment: cAMP assay, allosteric effects on GLP1-7-36 peptide induced cAMP activity (Example 10); type: cell-based; settings: FIGS. 10B-10J
Procedure: Cell binding was determined for the GLP1R variants. […] GLP1R-3, GLP1R-8, GLP1R-26, GLP1R-56, GLP1R-58 and GLP1R-10 were then analyzed for allosteric effects on GLP1-7-36 peptide in a cAMP assay. FIGS. […] show graphs of the GLP1R variants on inhibition of GLP1-7-36 peptide induced cAMP activity.

[2] = biological target: T1, GLP1R
Procedure: All GLP1R scFv clones, as well as pGPCR-GLP1R-43 and pGPCR-GLP1R-44, were assayed for their potential effects on GLP1R signaling by performing cAMP assays (Eurofins DiscoverX Corporation). These assays involve CHO cells that were engineered to overexpress naturally Gαs-coupled wildtype GLP1R and were designed to detect changes in intracellular cAMP levels in response to agonist stimulation of the receptor. The technology involved in detecting cAMP levels was a no wash gain-of-signal competitive immunoassay based on Enzyme Fragment Complementation technology and produced a luminescent signal that was directly proportional to the amount of cAMP in the cells. Experiments were designed to determine agonist or allosteric activity of the IgGs.

[3] = biological target: T2, GLP2R (Homo sapiens, UniProt O95838); experiment: Specificity of GLP1R versus GLP2R binding; settings: data not shown
T2 sequence (O95838 1-553): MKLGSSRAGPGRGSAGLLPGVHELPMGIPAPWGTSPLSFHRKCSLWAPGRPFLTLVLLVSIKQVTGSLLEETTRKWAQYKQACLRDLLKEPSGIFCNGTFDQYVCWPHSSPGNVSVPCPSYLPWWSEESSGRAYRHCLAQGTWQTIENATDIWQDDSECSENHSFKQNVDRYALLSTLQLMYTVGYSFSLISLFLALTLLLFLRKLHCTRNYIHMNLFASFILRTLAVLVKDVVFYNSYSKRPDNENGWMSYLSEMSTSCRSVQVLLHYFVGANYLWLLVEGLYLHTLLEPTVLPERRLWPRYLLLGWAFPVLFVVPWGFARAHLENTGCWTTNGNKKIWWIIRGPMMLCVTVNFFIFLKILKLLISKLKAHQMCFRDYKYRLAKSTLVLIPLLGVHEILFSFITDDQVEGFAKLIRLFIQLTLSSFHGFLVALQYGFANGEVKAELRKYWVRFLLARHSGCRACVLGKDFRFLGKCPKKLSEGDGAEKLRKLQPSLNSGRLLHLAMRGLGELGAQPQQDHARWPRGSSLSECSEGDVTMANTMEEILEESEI

[4] = system: C57BL/6NHsd Mice; experiment: Glucose Tolerance Test (GTT) in wild-type mice; type: in vivo, mouse; settings: control mice exhibited a decrease; FIG. 25D
Procedure: 15 C57BL/6NHsd Mice were used and subjected to a Glucose Tolerance Test (GTT). The in vivo GTT test was performed on three groups of mice with 5 mice per group. […] Blood glucose measurements were recorded for each mouse at 15, 30, 60, 120, and 180 minutes after dextrose injection. […] A third group of mice were the control mice and were not treated. Data is seen for GLP1R-59-2 (agonist), GLP1R-3 (antagonist), and control in FIGS. 25A-25D.

[5] = system: human pancreatic precursor cells expressing endogenous GLP1R; experiment: Binding to human pancreatic precursor cells expressing endogenous GLP1R
Procedure: (§1) Binding of GLP1R-3, GLP1R-59-242, and GLPTR-43-8 on mouse, macaca, and human GLP1R was determined. […] Binding of GLP1R-59-2, GLP1R-59-241, and GLPTR-59-243 on mouse, macaca, and human GLP1R was determined.

[6] = Thermal ramp stability (Tm and Tagg), UNcle platform; type: physicochemical
From the text: The GLP1R IgGs were characterized for thermal ramp stability (Tm and Tagg). The UNcle platform was used to characterize the IgGs and the data is seen in Table 21.

[7] = biological target: T3, mouse GLP1R (Mus musculus, UniProt O35659); experiment: Binding on mouse GLP1R; settings: IgG at 100 nM (GLP1R-59-243 at 50 nM); data not shown
T3 sequence (O35659 22-463): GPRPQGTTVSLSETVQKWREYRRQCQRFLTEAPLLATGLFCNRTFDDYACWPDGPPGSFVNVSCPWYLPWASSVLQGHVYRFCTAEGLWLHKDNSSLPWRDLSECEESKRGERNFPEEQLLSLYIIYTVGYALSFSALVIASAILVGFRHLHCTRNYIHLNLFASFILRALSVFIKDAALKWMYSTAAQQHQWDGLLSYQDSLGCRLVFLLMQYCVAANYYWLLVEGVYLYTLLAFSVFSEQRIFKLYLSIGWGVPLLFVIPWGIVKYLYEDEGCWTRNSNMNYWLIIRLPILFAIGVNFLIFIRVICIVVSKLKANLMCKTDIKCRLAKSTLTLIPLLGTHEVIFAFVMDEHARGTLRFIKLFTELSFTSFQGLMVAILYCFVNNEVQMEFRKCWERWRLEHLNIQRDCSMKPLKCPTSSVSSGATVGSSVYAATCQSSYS
Procedure: as §1

[8] = biological target: T1, GLP1R; experiment: cAMP assay, allosteric/antagonist effects on Exendin-4 peptide induced cAMP activity (Example 10); type: cell-based
[9] = biological target: T1, GLP1R; experiment: Binding on human GLP1R; settings: IgG at 100 nM (GLP1R-59-243 at 50 nM); data not shown
Procedure: as §1

[10] = system: C57BL/6J DIO mice; experiment: Oral glucose tolerance test in mouse model of diet induced obesity; type: in vivo; settings: HFD, 10 mg/kg SC, 2 g/kg oral glucose 60 minutes later, FIGS. 24C-24D
Procedure: The objective of this study was to evaluate the acute effects of a chimeric antibody GLP1R agonist and antagonist on glycemic control in a mouse model of diet induced obesity in C57BL/6J DIO mice. The test articles are seen below in Table 25.
For each test article, 7 different test article groups were generated as summarized in the following Table 26 with 8 animals per group.
On Day 3 (all animals) and Day 1 (Group 1-7), a non-fasting blood glucose was determined by tail snip. Approximately 5-10 μL of blood was collected. The second drop of blood from the animal was placed on a blood glucose test strip and analyzed using a hand-held glucometer (Abbott Alpha Trak).
After a non-fasting blood glucose measurement was made on the day of the procedure, the animals were weighed, tails marked, and the animals placed in clean cages without food. The animals were fasted for 4 hours and a fasting blood glucose measurement was determined.
The oral glucose tolerance test (OGTT) was administered to each animal 60 minutes later. The animals were dosed via oral gavage with 2 g/kg glucose (10 mL/kg). Blood glucose was determined via tail snip with the second drop of blood from the animal placed on a hand-held glucometer (Abbott Alpha Trak) at the following times relative to the glucose dose: 0 (just prior to glucose dose), 15, 30, 60, 90, and 120 minutes. […]

[11] = system: macaca GLP1R; experiment: Binding on macaca GLP1R; settings: IgG at 100 nM (GLP1R-59-243 at 50 nM); data not shown
Procedure: as §1

[12] = biological target: T1, GLP1R; experiment: VHH-Fc FACS binding on CHO-GLP1R cells; settings: Sample E10.fcs/CHO-GLP1R
Procedure: A VHH library for GLP1R was developed similar to methods described in Example 14. Briefly, stable cell lines expressing GLP1R were generated, and target expression was confirmed by FACS. Cells expressing >80% of the target were then used for cell-based selections. Five rounds of cell-based selections were carried out against cells stably overexpressing the target of interest. 10^8 cells were used for each round of selection. Before selection on target expressing cells, phage from each round was first depleted on 10^8 CHO background cells. Stringency of selections was increased by increasing the number of washes in subsequent rounds of selections. The […] using trypsin, and the phage was amplified for the next round of panning. A total of 1000 clones from round 4 and round 5 are sequenced by NGS to identify unique clones for reformatting as VHH-Fc.
The data for variant GLP1R-43-77 is seen in FIGS. 22A-22B and Tables 23B-24.

[13] = system: CHO-parent; experiment: VHH-Fc FACS binding on CHO-parent cells; settings: Sample E10.fcs/CHO-parent

T1 sequence (P43220 24-463): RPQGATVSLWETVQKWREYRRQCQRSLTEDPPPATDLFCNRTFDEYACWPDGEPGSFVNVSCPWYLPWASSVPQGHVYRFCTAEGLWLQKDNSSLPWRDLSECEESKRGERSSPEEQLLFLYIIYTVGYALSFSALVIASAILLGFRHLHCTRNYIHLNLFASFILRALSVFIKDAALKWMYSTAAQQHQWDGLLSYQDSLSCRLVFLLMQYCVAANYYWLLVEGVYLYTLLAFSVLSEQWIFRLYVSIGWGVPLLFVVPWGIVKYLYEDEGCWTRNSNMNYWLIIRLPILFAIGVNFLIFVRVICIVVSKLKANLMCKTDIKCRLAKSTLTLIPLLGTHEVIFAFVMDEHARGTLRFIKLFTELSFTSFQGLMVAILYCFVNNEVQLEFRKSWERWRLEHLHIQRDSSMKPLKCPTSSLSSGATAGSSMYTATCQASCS

Row | Molecule | allosteric inhibition of GLP1-7-36 peptide induced cAMP activity [1] | EC50 ([2]; EC50 of GLP1 (7-36) cAMP response with GLP1R IgG (+100 nM)) [nM] | fold difference of EC50 ([2]; EC50 with 100 nM IgG versus no antibody (Table 23)) [fold] | inhibition of GLP1:GLP1R signaling ([2]; GLP1 (7-36) titration versus no antibody, FIG. 24A) | inhibition at higher concentrations ([2]; following stimulation with 0.05 nM GLP1 (7-36), FIG. 24B) | specificity of GLP1R versus GLP2R binding [3] | change of glucose in a 6 hour fast, pre-dosed animals [4] | binding to human pancreatic precursor cells expressing endogenous GLP1R [5] | Average Tagg 266 [6] [°C] | Average Tm2 [6] [°C] | Average Tml [6] [°C] | binding on mouse GLP1R [7] | EC50 ([8]; EC50 of Exendin-4 induced cAMP in the presence of the GLP1R variant) [nM] | fold-diff ([8]; fold difference of Exendin-4 EC50 with variant versus Exendin-4 alone) | binding on human GLP1R [9] | glucose levels after glucose administration (OGTT) [10] | binding on macaca GLP1R [11] | Median: RL1-A [12] | Median: RL1-A [13]
1 | GLP1R-3: GLP1R antagonist IgG, CDR-H3 SEQ ID NO 2279, heavy chain SEQ ID NO 2320 (antibody) heavy: QVQLVESGGGVVQPGRSLRLSCAASGFTFSSYGMHWVRQAPGKGLEWVSFISYDESNKYYADSVKGRFTISRDNSKNTLYLQMNSLRAEDTAVYYCAKHMSMQEGAVTGEGQAAKEFIAWLVKGRVRADLVGDAFDVWGQGTLVTVSSASTKGPSVFPLAPCSRSTSESTAALGCLVKDYFPEPVTVSWNSGALTSGVHTFPAVLQSSGLYSLSSVVTVPSSNFGTQTYTCNVDHKPSNTKVDKTVERKCCVECPPCPAPPVAGPSVFLFPPKPKDTLMISRTPEVTCVVVDVSHEDPEVQFNWYVDGVEVHNAKTKPREEQFNSTFRVVSVLTVVHQDWLNGKEYKCKVSNKGLPAPIEKTISKTKGQPREPQVYTLPPSREEMTKNQVSLTCLVKGFYPSDIAVEWESNGQPENNYKTTPPMLDSDGSFFLYSKLTVDKSRWQQGNVFSCSVMHEALHNHYTQKSLSLSPGK light: QSVLTQPPSVSAAPGQKVTISCSGSSSNIADNYVSWYQQLPGTAPKLLIYDNNKRPSGIPDRFSGSKSGTSATLGITGLQTGDEADYYCGTWDNYLGAGVFGGGTKLTVLGQPKAAPSVTLFPPSSEELQANKATLVCLISDFYPGAVTVAWKADSSPVKAGVETTTPSKQSNNKYAASSYLSLTPEQWKSHRSYSCQVTHEGSTVEKTVAPTECS | allosteric inhibition | 1.31 | 2.2 | inhibits GLP1:GLP1R signaling | complete inhibition | specific for GLP1R over GLP2R | did not show decreased glucose | found to bound | 68.4 | 73.5 | 66.7 | found to bind | 0.63 | 5.4 | found to bind | sustained high glucose levels | found to bind |  | 
2 | GLP1R-43-77: GLP1R VHH Fc binder variant from the VHH library for GLP1R (protein, Fc) VHH: EVQLVESGGGLVQAGGSLRLSCAASGNTYSYKVMGWFRQAPGKEREFVGIIIRNGDTTYYADSVKGRFTISADNAKNTVYLQMNSLKPEDTAVYYCAASPKYMTAYERSYDWGQGTQVTVSS |  |  |  |  |  |  |  |  |  |  |  |  |  |  |  |  |  | 23439 | 237
